Data taken from PMC9036120.
Read-outs that look alike come from different tables or passages of the source.

Columns and labels:
PPARA;RXRA [1] = biological target: T1, PPARA;RXRA (mouse;mouse, UniProt P23204;P28700 1-468;1-467, |); experiment: EMSA
T1 sequence 1: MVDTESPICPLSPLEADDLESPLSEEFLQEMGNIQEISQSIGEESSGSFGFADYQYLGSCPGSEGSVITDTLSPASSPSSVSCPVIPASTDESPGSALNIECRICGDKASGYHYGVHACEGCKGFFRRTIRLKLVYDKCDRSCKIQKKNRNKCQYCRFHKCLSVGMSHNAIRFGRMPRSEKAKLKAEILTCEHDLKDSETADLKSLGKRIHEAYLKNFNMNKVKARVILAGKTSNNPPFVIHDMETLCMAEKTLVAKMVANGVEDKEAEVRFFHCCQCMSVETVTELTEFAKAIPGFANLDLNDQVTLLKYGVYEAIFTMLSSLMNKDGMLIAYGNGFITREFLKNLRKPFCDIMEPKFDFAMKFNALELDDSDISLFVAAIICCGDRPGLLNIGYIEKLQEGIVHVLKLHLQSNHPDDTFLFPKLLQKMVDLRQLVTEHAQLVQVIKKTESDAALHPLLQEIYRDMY
T1 sequence 2: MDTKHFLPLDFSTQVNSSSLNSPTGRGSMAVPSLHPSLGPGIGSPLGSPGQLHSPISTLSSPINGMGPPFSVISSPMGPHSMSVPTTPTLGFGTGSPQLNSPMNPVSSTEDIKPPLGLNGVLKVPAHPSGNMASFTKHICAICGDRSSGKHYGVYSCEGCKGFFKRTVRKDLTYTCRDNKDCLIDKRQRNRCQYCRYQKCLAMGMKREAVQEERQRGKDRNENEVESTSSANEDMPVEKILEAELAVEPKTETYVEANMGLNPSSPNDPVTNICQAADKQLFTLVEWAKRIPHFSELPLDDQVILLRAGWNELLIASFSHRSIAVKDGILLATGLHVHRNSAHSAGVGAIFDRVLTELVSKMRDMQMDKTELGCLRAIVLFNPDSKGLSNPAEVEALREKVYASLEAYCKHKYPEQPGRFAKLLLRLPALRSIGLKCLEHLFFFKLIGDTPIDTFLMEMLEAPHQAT

PPARA;RXRA [2] = biological target: T1, PPARA;RXRA; experiment: EMSA; remark: listed apart in the source

B1: Ppara-PPRE6 (dsDNA)
DNA 1: AAGTTTCAATGACCTTTGGGACAGTTAACTA
DNA 2: TAGTTAACTGTCCCAAAGGTCATTGAAACTT
- binding result (PPARA;RXRA [1]): binds

B2: E2f8-PPRE4 (dsDNA)
DNA 1: AGGCCCAGTAGGTTAAAGGGCTGACATTTTA
DNA 2: TAAAATGTCAGCCCTTTAACCTACTGGGCCT
- binding result (PPARA;RXRA [1]): binds

B3: Control (Acox1)-PPRE (dsDNA)
DNA 1: TCCCGAACGTGACCTTTGTCCTGGTCCCCTG
DNA 2: CAGGGGACCAGGACAAAGGTCACGTTCGGGA
- binding result (PPARA;RXRA [2]): binds
